Measured values: the supplement of paper PMC10567573
± gives the standard deviation.

Test: protein stability index of a GFP-peptide fusion (GPS, HEK-293T) (PSI 1-6); higher = more stable
Settings: c terminus: a fixed tail appended
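Further: 24-mer peptide tiles fused after GFP, lentivirally expressed, FACS-sorted into six equal bins by GFP/DsRed ratio, decoded by Illumina sequencing, PSI is the read-weighted mean bin number.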

Row | Sequence | protein stability index (treatment: DMSO) | protein stability index (treatment: MLN4924 1 uM, 8 h)
1 | QGSRHWQKLREESAARVVLTSLLA [DUSP5] | 2.31 ± 0.25 | 2.44 ± 0.24
2 | NYCLLFLIYTVMLAFRSGSDNLLV [SLC35F2] | 3.04 ± 0.44 | 3.29 ± 0.79
3 | TLGYMPTEMELLEVSQHIKMRMGG [CABP4] | 2.96 ± 0.18 | 2.94 ± 0.54
4 | IWTAHYDPGHCFAESRELPVRCAG [ALG2] | 2.38 ± 0.32 | 2.4 ± 0.24
5 | QAIEPQAIVQQVPAPSRMQMPQGN [SNX8] | 4.64 ± 0.25 | 4.75 ± 0.22
6 | ADSLQASMEKDATLNVDRKEKCVS [DLC1] | 5.35 ± 0.35 | 5.3 ± 0.25
7 | GGGGLHSVGTYIIDLLTFLTGQKA [GFOD1] | 2.1 ± 0.31 | 1.98 ± 0.36
8 | RYWRSLRVMKVEDREGPSSSKLVT [HDAC6] | 2.79 ± 0.22 | 3.07 ± 0.44
9 | EEFNVLEMEVMRRQLYAVNRRLRA [FATE1] | 2.92 ± 0.21 | 3.1 ± 0.5
10 | REIQPTAILSLDQIKAIRGSNEYT [SPRY1] | 3.99 ± 0.29 | 4.02 ± 0.14
11 | REIKVTLVFEHVDQDLRTYLDKAP [CDK4] | 2.65 ± 0.56 | 2.68 ± 0.72
12 | DLFDLCDRTFTLKTVLMIAIQLLS [CSNK1G1] | 2.6 ± 0.43 | 2.33 ± 0.42
13 | CDYSQYFKTIEELRDKIMATTIDN [KRT15] | 3.28 ± 0.12 | 3.22 ± 0.17
14 | LLSIIATVMILPVTHTEISPEQQF [TMEM175] | 3.47 ± 0.95 | 3.02 ± 0.35
15 | ADRAQKMDGESEEEQESVDTGEEE [EHMT1] | 5.78 ± 0.16 | 5.73 ± 0.32
16 | RFLRAYREGALRAALQRSLAAALA [TRADD] | 2.27 ± 0.062 | 2.32 ± 0.18
17 | NIMNKEAFMNQEITKAFHVRKANR [RHOBTB1] | 3.35 ± 0.18 | 3.45 ± 0.34
18 | AQSRLEDPGQDLVPKQAIQVQEAD [DLX1] | 5.35 ± 0.18 | 5.32 ± 0.27
19 | RDAKAAMAGRLMIRKLVAEKLNIP [AASDHPPT] | 2.62 ± 0.28 | 2.79 ± 0.36
20 | AKECMLQEENKSLREENKALREEN [CBY2] | 5.55 ± 0.22 | 5.51 ± 0.2
21 | FNPPPSRPLQVNTADHRIYSYVVS [FAF2] | 2.62 ± 0.29 | 2.92 ± 0.38
22 | LQARERGEEQVELSTIEELIKDAI [C2CD2L] | 4.14 ± 0.084 | 4.13 ± 0.19

Row | Sequence | protein stability index (treatment: DMSO) | protein stability index (treatment: MLN4924 1 uM, 8 h)
23 | VRYSDCCERVVINVSGLRFETQMK [KCNA4] | 2.31 ± 0.46 | 2.33 ± 0.37
24 | APHHHHHHSHSGPEISRIIVDPTT [PLK2] | 4.22 ± 0.12 | 4.12 ± 0.22
25 | SPRRSLYKLVGSPPWKEAFRQRCL [RPAIN] | 2.27 ± 0.26 | 2.4 ± 0.23
26 | QQFKQYSRHVTTRAALTYTSLEIT [M1AP] | 2.44 ± 0.18 | 2.6 ± 0.3
27 | EEDDGRGRGLLRWDSFSAWLHCVC [DENND6A] | 3.06 ± 0.25 | 3.04 ± 0.29
28 | IVLLEELLPKGSKEEQRDYVFYLA [FIS1] | 2.33 ± 0.34 | 2.16 ± 0.44
29 | QGLIEDCQLALQQKRETLSPLCLI [KCTD13] | 2.47 ± 0.17 | 2.64 ± 0.25
30 | KMAHVIAACLYLVCRTEGTPHMLL [BRF1] | 3.26 ± 0.64 | 2.84 ± 0.42
31 | EICLWGRHIFMGYLESETETTEAI [ACSBG2] | 2.55 ± 0.072 | 3.05 ± 0.29
32 | YPTCGIGYPVSSAFAFQNTFPHSI [SASS6] | 2.66 ± 0.55 | 2.49 ± 0.41
33 | YPCLEKPRIWSLAHTATASAVEGA [IRX6] | 2.8 ± 0.41 | 2.98 ± 0.49
34 | GLKPNSLYYFRLAARSPQGLGAST [PTPRD] | 1.89 ± 0.099 | 2.85 ± 1
35 | STSQGCAQPQGAPCCSSSPEEPLN [FEM1A] | 5.37 ± 0.23 | 5.32 ± 0.15
36 | DIVFSKIKGKSCRTITFEQFQEAL [TPPP] | 2.46 ± 0.29 | 2.31 ± 0.13
37 | ADGARSAVVAAGGGSSGQVTSNGS [CLPTM1] | 5.3 ± 0.065 | 5.09 ± 0.14
38 | KNALEKYGPLKPLPQTPHLEEDLK [MYBL2] | 5.16 ± 0.38 | 5.11 ± 0.2
39 | LEDYINDRQYDSRGRFGELLLLLP [HNF4A] | 2.19 ± 0.32 | 2.22 ± 0.2
40 | QQQQLTFTAALEHCRENAHDKIRP [SPACA9] | 4.1 ± 0.22 | 4.03 ± 0.16
41 | NRLSELEVANKDLTERKYKGDSTI [SASS6] | 4.71 ± 0.38 | 4.96 ± 0.38
42 | LVPKTHLMSESEWRNLGVQQSQGW [CKS1B] | 2.64 ± 0.32 | 2.86 ± 0.2
43 | QSDTLEQREEHELVHVMERSLSPS [RAD54B] | 5.45 ± 0.26 | 5.33 ± 0.23
44 | FFYGETVTDYFFTLVQREEPLRIL [CDS2] | 2.73 ± 0.66 | 2.17 ± 0.46
